According to patent publication US20050143287A1:

Assays:
Experiment in all cases: cell-based or functional assay
[1] = target: squirrel monkey prokineticin receptor 2 (PKR2) (squirrel monkey)
[2] = target: chimpanzee prokineticin receptor 2 (PKR2) (chimpanzee (Pan troglodytes))
[3] = target: rhesus monkey prokineticin receptor 1 (PKR1) (rhesus monkey)

Row | calcium mobilization (aequorin luminescence) in transiently transfected CHO cells [1] | calcium mobilization (aequorin luminescence) in transiently transfected CHO cells [2] | calcium mobilization (aequorin luminescence) in transiently transfected CHO cells [3] | Substance
1 | 10 nM | – | – | recombinant human PK1 (prokineticin 1) (from UniProt P58294 20-101) (ligand)
2 | – | 10 nM | 10 nM | recombinant human PK2 (prokineticin 2) (from UniProt Q9HC23 28-129) (ligand)
